Primed or numbered codes have the meaning given here. Ends that are not written are not given here. FITC′ = fluorescein isothiocyanate
T1: FITC-labeled β2 peptide (rat, UniProt P63138)
T1 peptide: {FITC′}-MWRVRKRGYFGIWSFPLII

T2: FITC-labeled α1 peptide (rat)
T2 peptide: {FITC′}-QPSQDELKDNTTVFT


How the values were obtained:
FITC-labeled β2 peptide = molecular target: T1, FITC-labeled β2 peptide; experiment: FP
FITC-labeled α1 peptide = molecular target: T2, FITC-labeled α1 peptide; experiment: FP

| Binder | Kd (FITC-labeled β2 peptide) [nM] | Kd (FITC-labeled α1 peptide) [nM] |
| --- | --- | --- |
| G8 scFv (anti-β2 subunit scFv), soluble protein (scFv, V domains shown) VH: EVQLVQSGAEVKKPGATVKISCKVSGYTFTDYYMHWVQQAPGKGLEWMGLVDPEDGETIYAEKFQGRVTITADTSTDTAYMELSSLRSEDTAVYYCATTPPHDYYDSSGLDYWGQGTLVTVSS VL: DIQMTQSPSSVSASVGDRVTITCRASQGINRWLAWYQQKPGKAPKLLIYAASNLQSGVPSRFSGSGSGTDFSLTISSLQPEDFATYYCQQSYSPPSTFGGGTKLEIK | 820 |  |
| A10 scFv (anti-α1 subunit-specific scFv), soluble protein (scFv, V domains shown) VH: EVQLVQSGAEVKKPGASVKVSCKASGYTFTSYYMHWVRQAPGQGLEWMGIINPSGGSTSYAQKFQGRVTMTRDTSTSTVYMELSSLRSEDTAVYYCARDGWGGSSFLDYWGQGTLVTVSS VL: SYELTQPPSVSVSPGQTARITCSGDALPKKYAYWYQQKSGQAPVLVIYEDSKRPSGIPERFSGSSSGTMATLTISGAQVEDEADYYCYSKDNTGYQMVFGGGTKLTVL |  | 3000 |

Source: publication PMC3929611 (2014)
